Measurements: patent publication US10941182 (Amgen, dated 2021)
Starred links: 1 amine or outer side, 2 acyl side, 3 side chain; linkers in the order of their positions; H or OH if unused. Non-standard residues stand in square brackets, D forms with d. Primed or numbered codes have the meaning given here. *: point of attachment. dBip = N[C@H](Cc1ccc(-c2ccccc2)cc1)C(=O)O; Oic = O=C(O)[C@@H]1C[C@@H]2CCCC[C@@H]2N1; Phe(4-Cl) = N[C@@H](Cc1ccc(Cl)cc1)C(=O)O; Phe(4-I) = N[C@@H](Cc1ccc(I)cc1)C(=O)O; γGlu = O=C(O)[C@H](CCC(=O)[*:2])N[*:1]; NMehArg = CN[C@@H](CCCCNC(=N)N)C(=O)O; HOOC(CH2)8CO = O=C(O)CCCCCCCCC(=O)*; NMeR = CN[C@@H](CCCNC(=N)N)C(=O)O; Palmitoyl = CCCCCCCCCCCCCCCC(=O)*; Tridecanoyl = CCCCCCCCCCCCC(=O)*; hArg = N=C(N)NCCCC[C@H](N)C(=O)O; Cha = N[C@@H](CC1CCCCC1)C(=O)O; NMeL = CN[C@@H](CC(C)C)C(=O)O; αMeL = CC(C)C[C@](C)(N)C(=O)O; αMeP = C[C@@]1(C(=O)O)CCCN1; AC4Abu″ = not defined here; β3hP = O=C(O)C[C@@H]1CCCN1; Nle = CCCC[C@H](N)C(=O)O; Pip′ = not defined here; Dap = NC[C@H](N)C(=O)O; AEEA = NCCOCCOCC(=O)O

T1: rat APJ receptor (rat, UniProt Q9JHG3 1-377)
T1 sequence (looked up): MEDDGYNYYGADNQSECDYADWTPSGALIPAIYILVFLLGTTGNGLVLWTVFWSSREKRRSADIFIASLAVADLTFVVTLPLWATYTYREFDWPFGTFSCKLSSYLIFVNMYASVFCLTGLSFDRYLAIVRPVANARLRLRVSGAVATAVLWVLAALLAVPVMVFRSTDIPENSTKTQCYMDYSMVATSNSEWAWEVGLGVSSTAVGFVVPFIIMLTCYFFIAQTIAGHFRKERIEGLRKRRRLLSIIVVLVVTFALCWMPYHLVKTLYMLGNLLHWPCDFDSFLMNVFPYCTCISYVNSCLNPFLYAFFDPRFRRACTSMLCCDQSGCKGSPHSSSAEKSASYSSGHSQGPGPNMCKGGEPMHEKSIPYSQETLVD

T2: rat APJ receptor (rat, UniProt Q9JHG3 1-377)
T2 sequence (looked up): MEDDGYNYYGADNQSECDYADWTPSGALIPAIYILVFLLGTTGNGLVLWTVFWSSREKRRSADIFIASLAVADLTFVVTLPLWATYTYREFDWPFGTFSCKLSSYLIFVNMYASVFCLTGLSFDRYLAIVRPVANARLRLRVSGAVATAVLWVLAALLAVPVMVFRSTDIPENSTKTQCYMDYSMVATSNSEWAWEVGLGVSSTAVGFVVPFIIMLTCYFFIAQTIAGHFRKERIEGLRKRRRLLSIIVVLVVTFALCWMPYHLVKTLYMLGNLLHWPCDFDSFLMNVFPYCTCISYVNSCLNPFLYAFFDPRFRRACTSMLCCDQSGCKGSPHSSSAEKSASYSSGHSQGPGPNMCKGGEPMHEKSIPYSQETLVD


Experiments:
[1] = target: T1, rat APJ receptor; experiment: cell-based or functional assay
[2] = target: T2, rat APJ receptor; experiment: cell-based or functional assay; remark: listed apart in the source

Binder	EC50 Rat APJ Receptor [1] [nM]	EC50 Rat APJ Receptor (GTPγS assay) [2] [nM]
Palmitoyl-[AC4Abu″][AEEA][AEEA][dQ]RP[NMeR][αMeL]S[Dap]KG[Oic][Nle][β3hP][Phe(4-Cl)]-OH (reading uncertain) [SEQ ID NO: 630]	0.486	
XXXQRPRLSHKGPXPF ({TDA}[AC4Abu][Aeea][Aeea]QRP[NMeArg][aMeLeu]SHKG[aMePro][Nle]P[4-Cl-F]{COOH}) [Apelin polypeptide SEQ ID NO: 387]		0.166
XXXQRPRLSHKGPXPF ({hexanoyl}[AC4Abu][Aeea][Aeea]QRP[hArg][aMeLeu]SHKGP[Nle]P[4-Cl-F]{COOH}) [SEQ ID NO: 559]	9.15	
XXXQRPRLSHKGPXPF ({AdpA}[AC4Abu][Aeea][Aeea]QRP[NMeArg]LSHKGP[Nle]P[4-Cl-F]{COOH}) [SEQ ID NO: 461]	1	
Ac-QR[NMehArg]LSHKGP[Nle]P[Phe(4-Cl)]-OH (SMILES CCCC[C@H](NC(=O)[C@@H]1CCCN1C(=O)CNC(=O)[C@H](CCCCN)NC(=O)[C@H](Cc1c[nH]cn1)NC(=O)[C@H](CO)NC(=O)[C@H](CC(C)C)NC(=O)[C@H](CCCCNC(=N)N)N(C)C(=O)[C@H](CCCNC(=N)N)NC(=O)[C@H](CCC(N)=O)NC(C)=O)C(=O)N1CCC[C@H]1C(=O)N[C@@H](Cc1ccc(Cl)cc1)C(=O)O) [SEQ ID NO: 73]	47.2	
XXXQRPRLSHKGPXPF ({TDA}[AC4Abu][Aeea][Aeea]QrP[hArg][aMeLeu]SHKGP[Nle]P[4-Cl-F]{COOH}) [Apelin polypeptide SEQ ID NO: 485]		0.41
KLRKHNCLQRRCMPLHSRVPFP [SEQ ID NO: 15]	16.1	
QRPRLSHKGPXPF ({Acetyl-NH}Q[hArg]P[NMeArg][aMeLeu]SHKGP[Nle]P[4-Cl-F]{COOH}) [SEQ ID NO: 71]	2.75	
XXXQRPRLSHKGPXPF ({hexanoyl}[AC4Abu][Aeea][Aeea]QrP[hArg][aMeLeu]SHKGP[Nle]P[4-Cl-F]{COOH}) [SEQ ID NO: 514]	6.69	
{HOOC(CH2)8CO}-[γGlu][AEEA][AEEA][hArg][dR]Q[hArg]P[dR][NMeL]SHKG[Oic][Phe(4-I)]P[dBip]-OH (SMILES CC(C)C[C@@H](C(=O)N[C@@H](CO)C(=O)N[C@@H](Cc1c[nH]cn1)C(=O)N[C@@H](CCCCN)C(=O)NCC(=O)N1[C@H](C(=O)N[C@@H](Cc2ccc(I)cc2)C(=O)N2CCC[C@H]2C(=O)N[C@H](Cc2ccc(-c3ccccc3)cc2)C(=O)O)C[C@@H]2CCCC[C@@H]21)N(C)C(=O)[C@@H](CCCNC(=N)N)NC(=O)[C@@H]1CCCN1C(=O)[C@H](CCCCNC(=N)N)NC(=O)[C@H](CCC(N)=O)NC(=O)[C@@H](CCCNC(=N)N)NC(=O)[C@H](CCCCNC(=N)N)NC(=O)COCCOCCNC(=O)COCCOCCNC(=O)CC[C@H](NC(=O)CCCCCCCCC(=O)O)C(=O)O) [SEQ ID NO: 291]	2.47	
XXXQRPRLSHKGPXPF ({TDA}[AC4Abu][Aeea][Aeea]Q[NMehArg]P[NMeArg][aMeLeu]SHKGP[Nle]P[4-Cl-F]{COOH}) [Apelin polypeptide SEQ ID NO: 484]		0.767
Tridecanoyl-[AC4Abu″][AEEA][AEEA][dQ]RP[NMeR][αMeL][BhSer]HKG[Oic][Nle][αMeP][Phe(4-Cl)]-OH (reading uncertain) [Apelin polypeptide SEQ ID NO: 518]		0.444
QRPRLSHKGPXPF ({Acetyl-NH}QrP[hArg][aMeLeu]SHKGP[Nle]P[4-Cl-F]{COOH}) [SEQ ID NO: 70]	9.74	
QRPRLSHKGPXPF ({Acetyl-NH}QRP[NMeArg]LSHKGP[Nle]P[4-Cl-F]{COOH}) [SEQ ID NO: 68]	0.384	
XXXQRPRLSHKGPXPF ({TDA}[AC4Abu][Aeea][Aeea]QRP[NMeArg]LS[rHis]KGP[Nle]P[4-Cl-F]{COOH}) [Apelin polypeptide SEQ ID NO: 469]		1.33
XXXQXPRLSHKGPXPF ({TDA}[AC4Abu][Aeea][Aeea]Q[Cit]P[NMeArg]LSHKGP[Nle]P[4-Cl-F]{COOH}) [Apelin polypeptide SEQ ID NO: 400]		0.42
XXXQRPRLSHKGPXPF ({TDA}[AC4Abu][Aeea][Aeea]QRP[hArg]LSHKGP[Nle]P[4-Cl-F]{COOH}) [Apelin polypeptide SEQ ID NO: 355]		0.06
XXXQRPRLSHKGPXPF ({TDA}[AC4Abu][Aeea][Aeea]Q[hArg]P[hArg]LSHKGP[Nle]P[4-Cl-F]{COOH}) [Apelin polypeptide SEQ ID NO: 357]		0.24
Tridecanoyl-[AC4Abu″][AEEA][AEEA]QRP[NMeR][Cha]SHKG[Pip′][Nle]P[Phe(4-Cl)]-OH (reading uncertain) [Apelin polypeptide SEQ ID NO: 416]		0.346
XXXQRPRLSHKGPXPF ({TDA}[AC4Abu][Aeea][Aeea]QRP[NMeArg]L[aMeS]HKGP[Nle]P[4-Cl-F]{COOH}) [Apelin polypeptide SEQ ID NO: 468]		0.165
